B1: SCT-Aa01(m/m) (antibody, V domains shown)
VH: DVQLQESGPGLVKPSQSLSLTCSVTGYSITSGYYWNWIRQFPGNKLEWMGYIRYDGSNNYNPSLKNRISITRDTSKNQFFLKLNSVTTEDTATYYCAPYDYDYAMDFWGQGTSVTVSS
VL: DIQMTQSPASLSASVGETVTITCRASGNIHNYLAWYQQKQGKSPQLLVYNAKTLAHGVPSRFSGSGSGTQYSLKITSLQPEDFGTYYCQHFWSTPFTFGSGTKLEIK
notes: Full IgG format: mouse IgG1 heavy chain constant region, mouse kappa light chain constant region
B2: SCT-Aa09(m/m) (antibody, V domains shown)
VH: QVQLQQSDAELVKPGASVKISCKVSGYTFTDHTIHWMKQRPEQGLEWIGYFYPRDDNTKYNEKFKGKATLTADRSSSTAYMQLNSLTSEDSAVYFCARWDYEGFDYWGQGTTLTVSS
VL: DIVMTQSPATLSVTPGDRVSLSCRASQSIRDYLHWYQQKSHESPRLLIKYASQSISGIPSRFSGSGSGSDFTLSINSVEPEDVGVYYCQNGHSFPPTFGSGTKLEIK
notes: as for B1
B3: SCT-Aa10(h/h) (antibody, V domains shown)
VH: QVQLQQSDAELVKPGASVKISCKVSGYTFTDHTIHWMKQRPEQGLEWIGYIFPRDGNTKYNEKFKGKATMTADKSSSTAYMQLNSLTSEDSAVYFCARWDYEGFDCWGQGTTLTVSS
VL: DIVMTQSPATLSVTPGDRVSLSCRASQSISDYLHWYQQKSHESPRLLIKYASQSISGIPSRFSGSGSGSDFTLSINSVEPEDVGVYFCQNGHSFPPTFGSGTKLEIK
notes: Full IgG format, chimeric: human IgG1 heavy chain constant region, human kappa light chain constant region
B4: SCT-Aa10(m/m) (antibody, V domains shown)
VH: QVQLQQSDAELVKPGASVKISCKVSGYTFTDHTIHWMKQRPEQGLEWIGYIFPRDGNTKYNEKFKGKATMTADKSSSTAYMQLNSLTSEDSAVYFCARWDYEGFDCWGQGTTLTVSS
VL: DIVMTQSPATLSVTPGDRVSLSCRASQSISDYLHWYQQKSHESPRLLIKYASQSISGIPSRFSGSGSGSDFTLSINSVEPEDVGVYFCQNGHSFPPTFGSGTKLEIK
notes: as for B1
B5: SCT-Aa14(m/m) (antibody, V domains shown)
VH: QVQLQQSDAELVKPGASVKISCKVSSYTFTDHTIHWMKQRPEQGLEWIGYIFPRDGSTKYNEKFKGKATLTADKSSSTAYMQLNSLTSEDSAVYFCARWDYEGFDYWGQGTTLTVSS
VL: DIVMTQSPATLSVTPGDRVSLSCRASQNISDYLHWYQQKSHESPRLLIKYASQSISGIPSRFSGSGSGSDFTLSINSVEPEDVGVYYCQNGHSFPPTFGSGTKLEIK
notes: as for B1
B6: SCT-Aa15(h/h) (antibody, V domains shown)
VH: QVQLQQSDAELVKPGPSVKISCKVSGSTFTDHTVHWMKQRPEQGLEWIGYVYPRDGSTRYNEKFKGKATLTADKSSSTAYMQLNSLTSEDSAVYFCARWDYEGFDYWGQGTTLTVSS
VL: DIVMTQSPATLSVTPGDRVSLSCRASQNISDYLHWYQQKSHESPRLLIKYASQSISGIPSRFSGSGSGSDFTLSINSVEPEDVGVYYCQNGHSFPPTFGSGTKLKIK
notes: as for B3
B7: SCT-Aa05(m/m) (antibody, V domains shown)
VH: EVKLLQSGGGLVQPGGSLKLSCAASGIDFSRYWMSWVRRAPGKGLEWIGEINPDSSTINYAPSLKDKFIISRDNAKNTLYLQMSKVRSEDTGLYYCASLYYDYEREYGMDYWGQGTSVTVSS
VL: DIVMTQSQKFMSTSVGDRVSVTCKASQNVGTNVAWYQQKPGQSPKALIYSASYRFSGVPDRFTGSGSGTDFTLTISNVQSEDLAEYFCQQYNSYPYTFGGGTKLEIK
notes: as for B1
B8: SCT-Aa04(h/h) (antibody, V domains shown)
VH: EVKLLQSGGGLVQPGGSLKLSCAASGIDFSRYWMSWVRRAPGKGLEWIGEINPDSSTINYAPSLKDKFIISRDNAKNTLYLQMSKVRSEDTALYYCASFYYDYDRGAAMDYWGQGTSVTVSS
VL: DIVMTQSQKFMSTSVGDRVSVTCKASQNVGTNVAWYQQKPGQSPKALIYSASYRYSGVPDRFTGSGSGTDFTLTISNVQSEDLAEYFCQQYNSYPYTFGGGTKLEIK
notes: as for B3
B9: SCT-Aa05(h/h) (antibody, V domains shown)
VH: EVKLLQSGGGLVQPGGSLKLSCAASGIDFSRYWMSWVRRAPGKGLEWIGEINPDSSTINYAPSLKDKFIISRDNAKNTLYLQMSKVRSEDTGLYYCASLYYDYEREYGMDYWGQGTSVTVSS
VL: DIVMTQSQKFMSTSVGDRVSVTCKASQNVGTNVAWYQQKPGQSPKALIYSASYRFSGVPDRFTGSGSGTDFTLTISNVQSEDLAEYFCQQYNSYPYTFGGGTKLEIK
notes: as for B3
B10: SCT-Aa03(m/m) (antibody, V domains shown)
VH: EVKLLQSGGGLVQPGGSLKLSCAASGIDFSRYWMSWVRRAPGKGLEWIGEINPDSSTINYAPSLKDKFIISRDNAKNTLYLQMSKVRSEDTALYYCASFYYDYDHAMDYWGQGTSVTVSS
VL: DIVMTQSQKFMSTSVGDRFSVTCKASQNVGTNVAWYQQKPGQSPKALIYSASYRFSGVPDRFTGSGSGTDFTLTISNVQSEDLAEYFCQQYNSYPFTFGSGTKLEIK
notes: as for B1

Assays:
[1] = biological target: T1, BCMA on cells (293T cells transfected with BCMA; H929, MM.1S and U266 cell lines expressing BCMA) (human, UniProt Q02223 1-184); test: flow cytometry, 293T cells transfected with BCMA, above parental 293T background
T1 construct: H929, MM.1S and U266 carry the native protein; also called B-cell Maturation Antigen; TNFRSF17
T1 sequence: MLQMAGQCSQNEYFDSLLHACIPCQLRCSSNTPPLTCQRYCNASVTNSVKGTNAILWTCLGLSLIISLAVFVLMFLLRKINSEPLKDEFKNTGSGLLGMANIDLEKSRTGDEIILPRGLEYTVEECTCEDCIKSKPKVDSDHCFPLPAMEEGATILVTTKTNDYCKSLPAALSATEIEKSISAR

[2] = biological target: T2, cyno BCMA with a His tag (ACROBiosystems, Catalog No.: BCA-052H7) (cyno); test: ELISA, plate-coated cyno BCMA-His
T2 construct: Bought His-tagged recombinant protein
Method: (§1) The recombinantly expressed antibodies were used to assess binding activity to BCMA of different species origins by conventional ELISA according to the known art. Recombinant human BCMA, cyno BCMA, and mouse BCMA were coated onto ELISA plates to detect binding at serially diluted concentrations of the anti-BCMA antibody preparations.
(§2) The ability for antibodies of the present disclosure to bind human BCMA was measured with an ELISA assay. For the BCMA binding assay, a 96-well plate (Nunc) is coated with human BCMA with a His tag (ACROBiosystems, Catalog No.: AC108P1-180611F2-Bulk, SEQ ID NO:2) at 0.2 μg/well overnight at 4° C. Wells are blocked for 2 h with blocking buffer (PBS containing 3% bovine serum albumin). Wells are washed three times with PBS containing 0.1% Tween-20. Anti-human BCMA antibodies of the present disclosure or control IgG (100 μL) is then added and incubated at room temperature for 1 h. After washing, the plate is incubated with 100 μL of goat anti-mouse IgG Fcγ Fragment Specific-HRP conjugate (Jackson ImmunoResearch) at room temperature for 1 h. The plates are washed and then incubated with 100 μL of 3,3′,5,5′-tetra-methylbenzidine. The absorbance at 450 nm is read on a microplate reader. The half maximal effective concentration (EC50) is calculated using GraphPad Prism 6 software.
In experiments performed essentially as described above, anti-human BCMA antibodies of the present disclosure bind cyno BCMA with a His tag (ACROBiosystems, Beijing, China, Catalog No.: BCA-052H7, SEQ ID NO:110) with an EC50 values shown in Table 4.

[3] = biological target: T1, BCMA on cells (293T cells transfected …); test: flow cytometry, H929 cells
[4] = biological target: T1, BCMA on cells (293T cells transfected …); test: flow cytometry, H929 cells; remark: listed apart in the source
Method: A cell line expressing BCMA, H929, was used to assess binding by anti-BCMA antibodies on the native protein on the cell surface by flow cytometry according to the known art. A subset of anti-human BCMA antibodies were assayed for binding to H929 and the fraction of cells bound the labeled antibody above background defined by control is shown in Table 8.

[5] = biological target: T3, human BCMA with a His tag (ACROBiosystems, Catalog No.: BCA-H522y) (human); test: SPR, Biacore T200
T3 construct: Bought His-tagged recombinant protein; also called huBCMA-His; Recombinant human BCMA
T3 chain: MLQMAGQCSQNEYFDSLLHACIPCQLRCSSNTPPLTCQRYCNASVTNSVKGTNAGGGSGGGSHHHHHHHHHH
Method: The binding affinity of select anti-BCMA was measured on a surface plasmon resonance (SPR) instrument, Biacore T200™, against human BCMA by a method known in the art.
In experiments performed essentially as described above, a subset of anti-human BCMA antibodies of the present disclosure bind human BCMA with a His tag (ACROBiosystems, Beijing, China, Catalog No.: BCA-H522y, SEQ ID NO:2) with affinity shown in Table 6.

[6] = biological target: T3, human BCMA with a His tag …; test: ELISA, plate-coated human BCMA-His
Method: as §1, §2
In experiments performed essentially as described above, anti-human BCMA antibodies of the present disclosure bind human BCMA with a His tag (ACROBiosystems, Beijing, China, Catalog No.: BCA-H522y, SEQ ID NO:2) with an EC50 values shown in Table 3.

[7] = biological target: T4, mouse BCMA with a His tag (ACROBiosystems, Catalog No.: BCA-M52H3) (mouse); test: ELISA, plate-coated mouse BCMA-His
T4 construct: Bought His-tagged recombinant protein
T4 chain: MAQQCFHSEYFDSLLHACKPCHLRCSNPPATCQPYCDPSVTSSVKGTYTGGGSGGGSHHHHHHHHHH
Method: as §1, §2
In experiments performed essentially as described above, anti-human BCMA antibodies of the present disclosure bind mouse BCMA with a His tag (ACROBiosystems, Beijing, China, Catalog No.: BCA-M52H3, SEQ ID NO:109) with an EC50 values shown in Table 5.

T2 sequence (chain, as listed by the source limits assumed): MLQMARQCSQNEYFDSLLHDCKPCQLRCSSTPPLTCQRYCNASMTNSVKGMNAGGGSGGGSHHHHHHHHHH

Row | Binder | Positive (%) [1] [%] | EC50 [2] [ng/mL] | Mean fluorescent intensity [3] | Positive (%) [4] [%] | Kd [5] [nM] | koff [5] [s⁻¹] | kon [5] [M⁻¹ s⁻¹] | EC50 [6] [ng/mL] | EC50 [7] [ng/mL]
1 | B1 | 48.2 | 5.7 | 2090 | 99.8 | 68.6 | 0.0175 | 255000 | 2.92 | 
2 | B2 | 16.9 | 5570 | 102 | 18.4 | 76.6 | 0.127 | 1.66e+06 | 1.96 | 
3 | B3 | 57.9 |  | 495 | 85.5 | 9.17 | 0.0284 | 3.1e+06 | 2.86 | 941
4 | B4 | 82.9 |  | 2960 | 99.9 | 9.56 | 0.0224 | 2.34e+06 | 2.57 | 8030
5 | B5 | 52.2 |  | 475 | 75.1 | 20.4 | 0.0376 | 1.85e+06 | 2.52 | 2340
6 | B6 | 32 |  | 141 | 34.8 | 1.19 | 0.0062 | 5.21e+06 | 3.71 | 226
7 | B7 | 94.3 |  | 2020 | 99.9 | 4.91 | 0.00034 | 69200 | 2.12 | 52.2
8 | B8 | 72 |  | 623 | 96.5 | 32.6 | 0.034 | 1.04e+06 | 2.48 | 270
9 | B9 | 76.3 |  | 758 | 96.5 | 9.93 | 0.000995 | 100000 | 2.35 | 29.4
10 | B10 | 91.6 |  | 3920 | 99.9 | 11.7 | 0.00263 | 224000 | 1.71 | 79.1
